Experimental data taken from PMC7656253, “Recovery of motor function of chronic spinal cord injury by extracellular pyruvate kinase isoform M2 and the underlying mechanism” (Scientific Reports, 2020).

Molecular target: T1, Recombinant human valosin-containing protein (VCP) (human, UniProt P55072 1-806)
T1 construct: valosin-containing protein (VCP), human, recombinant; Commercial protein; The supplier is printed as 'Abnoba', probably Abnova; No catalogue number or tag is printed; also called recombinant VCP; source: bought: Abnoba, Taipei, Taiwan
T1 sequence (P55072 whole entry): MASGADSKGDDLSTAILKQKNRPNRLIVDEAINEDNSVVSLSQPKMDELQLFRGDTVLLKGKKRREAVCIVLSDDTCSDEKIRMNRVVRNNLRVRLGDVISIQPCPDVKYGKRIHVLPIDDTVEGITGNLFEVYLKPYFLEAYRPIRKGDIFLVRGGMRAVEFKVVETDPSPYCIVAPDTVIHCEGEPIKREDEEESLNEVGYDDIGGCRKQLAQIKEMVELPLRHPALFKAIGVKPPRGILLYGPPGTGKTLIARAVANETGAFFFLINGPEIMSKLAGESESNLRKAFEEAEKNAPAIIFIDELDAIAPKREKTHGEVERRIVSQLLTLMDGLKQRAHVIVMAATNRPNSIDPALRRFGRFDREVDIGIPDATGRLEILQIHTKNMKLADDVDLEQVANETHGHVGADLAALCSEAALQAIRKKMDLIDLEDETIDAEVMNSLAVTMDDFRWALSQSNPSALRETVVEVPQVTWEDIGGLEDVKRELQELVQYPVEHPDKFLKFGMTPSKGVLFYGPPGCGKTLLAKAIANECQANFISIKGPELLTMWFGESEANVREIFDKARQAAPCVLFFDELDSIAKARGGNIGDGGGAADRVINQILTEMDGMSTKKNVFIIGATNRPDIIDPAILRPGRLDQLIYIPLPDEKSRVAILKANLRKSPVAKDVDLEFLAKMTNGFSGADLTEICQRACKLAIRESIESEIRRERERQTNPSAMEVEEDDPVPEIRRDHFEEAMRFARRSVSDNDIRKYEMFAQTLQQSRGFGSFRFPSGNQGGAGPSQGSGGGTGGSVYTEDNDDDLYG
Assay: co-IP; recombinant mouse PKM2 (100 pmol) and recombinant human VCP (10 pmol) coincubated 1 h at 25 °C; precipitated with rabbit anti-PKM2 antibody or normal mouse IgG cross-linked to Dynabeads Protein G, 2 h at 25 °C; Western blot for PKM2 and VCP
Conditions: both partners purified

B1: Recombinant mouse pyruvate kinase isoform M2 (PKM2) (enzyme)
chain: not shown
notes: pyruvate kinase isoform M2 (PKM2), mouse, recombinant; Commercial protein; No catalogue number, expression host or tag is printed; also called recombinant PKM2; extracellular PKM2; source: bought: Abcam
binding result: binds
